Data as given in article PMC4705956.

Target: Asp93 (UniProt position 93, WARYADWLFTT)
Test: UV-vis
Conditions: 298 K; 100 mM NaCl (Fig. 7 caption); the Methods state 4 M NaCl for UV-visible spectroscopy; Not stated for the titration; the Methods give 50 mM Tris-HCl for UV-visible samples; Folded, retinal-bound, detergent-solubilised. Light or dark adaptation is not stated.

Q: Which pKa does the source give for “Bacteriorhodopsin (HwBR) (Haloquadratum walsbyi)” here?
A: 1.97

Q: Which pKa does the source give for “Bacteriorhodopsin (HwBR) R82E mutant (Haloquadratum walsbyi; R82E)” here?
A: 2.24
